Two molecules from publication PMC7721647, “The Human RNA Helicase DDX21 Presents a Dimerization Interface Necessary for Helicase Activity” (iScience, 2020) can be followed below.

One data set addresses T1, DDX21ΔNC (human, UniProt Q9NR30 186-710).
T1 sequence: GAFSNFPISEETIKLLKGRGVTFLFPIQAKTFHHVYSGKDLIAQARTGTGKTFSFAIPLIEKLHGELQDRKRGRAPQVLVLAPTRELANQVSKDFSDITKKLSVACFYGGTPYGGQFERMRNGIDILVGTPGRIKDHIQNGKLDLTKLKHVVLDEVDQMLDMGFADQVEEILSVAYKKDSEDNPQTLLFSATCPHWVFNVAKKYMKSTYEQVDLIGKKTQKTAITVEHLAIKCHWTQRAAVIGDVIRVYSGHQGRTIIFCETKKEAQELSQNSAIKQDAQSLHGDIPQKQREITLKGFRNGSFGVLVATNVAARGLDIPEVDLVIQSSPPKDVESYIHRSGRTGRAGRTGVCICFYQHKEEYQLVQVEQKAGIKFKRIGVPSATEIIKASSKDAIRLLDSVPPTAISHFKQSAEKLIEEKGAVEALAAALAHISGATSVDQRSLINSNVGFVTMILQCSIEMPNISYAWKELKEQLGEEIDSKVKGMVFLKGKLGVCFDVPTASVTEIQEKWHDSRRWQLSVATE
As to the kind of experiment: fluorescence polarization; FP: 50 mM Tris pH 7.5, 50 mM KCl, 5 mM MgCl2, no ATP; Hill-slope fit; temperature not given in the material. The following applies: protein: recombinant, chain copies: 2. For orientation: In fluorescence polarisation assays a small probe gives low polarisation when free and higher when bound to something large.

In another data set the target is T2, DDX21Core-DD (human, UniProt Q9NR30 186-620).
T2 sequence: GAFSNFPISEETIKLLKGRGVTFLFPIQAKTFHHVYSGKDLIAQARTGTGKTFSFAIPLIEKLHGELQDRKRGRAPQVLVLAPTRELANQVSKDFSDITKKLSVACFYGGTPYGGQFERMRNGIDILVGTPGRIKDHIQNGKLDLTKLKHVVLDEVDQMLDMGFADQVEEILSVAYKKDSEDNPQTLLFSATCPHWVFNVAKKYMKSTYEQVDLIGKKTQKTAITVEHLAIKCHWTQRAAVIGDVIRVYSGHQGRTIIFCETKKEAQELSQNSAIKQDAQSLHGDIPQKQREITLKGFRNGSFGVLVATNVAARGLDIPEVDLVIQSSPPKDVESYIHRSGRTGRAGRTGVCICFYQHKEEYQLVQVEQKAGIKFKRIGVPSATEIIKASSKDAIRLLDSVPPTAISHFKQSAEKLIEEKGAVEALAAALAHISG
The data set is described as above. The following applies: protein: recombinant, tags: C-terminal His6, uncleavable, chain copies: 2.

The target in the next data set is T3, DDX21ΔN (human, UniProt Q9NR30 186-783).
T3 sequence: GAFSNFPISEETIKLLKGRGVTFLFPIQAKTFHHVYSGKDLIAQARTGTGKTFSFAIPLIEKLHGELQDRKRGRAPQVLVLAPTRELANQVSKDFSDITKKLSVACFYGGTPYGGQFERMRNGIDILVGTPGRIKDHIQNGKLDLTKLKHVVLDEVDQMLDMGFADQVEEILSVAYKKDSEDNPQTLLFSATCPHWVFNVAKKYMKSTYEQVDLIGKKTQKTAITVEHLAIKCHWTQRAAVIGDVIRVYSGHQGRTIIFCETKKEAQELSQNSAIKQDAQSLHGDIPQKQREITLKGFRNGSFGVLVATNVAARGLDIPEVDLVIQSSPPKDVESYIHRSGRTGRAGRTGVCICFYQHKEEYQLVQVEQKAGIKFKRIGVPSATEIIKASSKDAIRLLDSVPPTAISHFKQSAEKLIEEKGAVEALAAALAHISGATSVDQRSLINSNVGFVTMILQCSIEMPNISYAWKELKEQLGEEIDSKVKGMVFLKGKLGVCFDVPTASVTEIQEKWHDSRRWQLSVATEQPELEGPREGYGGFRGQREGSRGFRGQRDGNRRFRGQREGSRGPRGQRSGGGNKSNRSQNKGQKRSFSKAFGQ
Described as above. The note with it: protein: recombinant, chain copies: 2.

The next data set addresses T4, DDX21Fl (human, UniProt Q9NR30 1-783).
T4 sequence: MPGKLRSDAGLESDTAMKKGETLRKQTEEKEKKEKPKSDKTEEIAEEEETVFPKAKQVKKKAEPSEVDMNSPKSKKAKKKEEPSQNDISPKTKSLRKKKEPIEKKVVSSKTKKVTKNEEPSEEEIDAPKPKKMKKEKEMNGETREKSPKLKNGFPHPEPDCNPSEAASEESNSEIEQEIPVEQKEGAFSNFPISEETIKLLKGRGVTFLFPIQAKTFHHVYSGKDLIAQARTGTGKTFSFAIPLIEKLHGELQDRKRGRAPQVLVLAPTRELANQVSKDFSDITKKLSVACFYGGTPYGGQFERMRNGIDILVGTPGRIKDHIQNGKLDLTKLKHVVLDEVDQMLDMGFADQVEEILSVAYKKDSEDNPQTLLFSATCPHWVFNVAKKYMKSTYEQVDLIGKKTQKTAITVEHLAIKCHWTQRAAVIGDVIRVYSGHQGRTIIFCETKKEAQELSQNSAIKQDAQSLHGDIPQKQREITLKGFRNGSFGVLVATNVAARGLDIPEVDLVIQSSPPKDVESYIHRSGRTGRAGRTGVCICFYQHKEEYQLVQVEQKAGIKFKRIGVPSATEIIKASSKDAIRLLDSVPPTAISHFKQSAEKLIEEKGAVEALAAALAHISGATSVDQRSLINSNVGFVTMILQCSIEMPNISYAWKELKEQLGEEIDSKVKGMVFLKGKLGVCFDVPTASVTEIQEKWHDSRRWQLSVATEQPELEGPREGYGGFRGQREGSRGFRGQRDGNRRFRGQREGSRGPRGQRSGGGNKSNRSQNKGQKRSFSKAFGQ
The data set can be described thus: fluorescence polarization; no ATP; FP: 50 mM Tris pH 7.5, 50 mM KCl, 5 mM MgCl2, no ATP; Hill-slope fit; temperature not given in the material. The following applies: protein: recombinant, tags: N-terminal Trx-His6, cut with thrombin, chain copies: 2.

Where [1] appears, read: label: 5'-FAM on 15-mer, 3' overhang 15 nt.

For GUUUCGGAUCGACGC (ssRNA) [15-mer ssRNA], the Kd with DDX21ΔNC (label: 5'-FAM, single strand) was found to be 688 ± 52.7 nM; in the data set with DDX21Core-DD (label: 5'-FAM, single strand), 330 ± 19.1 nM; with DDX21ΔN (label: 5'-FAM, single strand) it was 40.3 ± 2.6 nM; with DDX21Fl (label: 5'-FAM, single strand), 30.7 ± 2.8 nM.

B1: dsRNA 15/30mer 3' overhang (dsRNA)
RNA 1: GUUUCGGAUCGACGC
RNA 2: GCGUCGAUCCGAAACUAUACUUAAUUUUAA
B1: the Kd with DDX21ΔNC (setting [1]) came out at 217 ± 10.4 nM; with DDX21Core-DD (setting [1]) it was 143 ± 6.1 nM; in the data set with DDX21ΔN (setting [1]) it was 15.5 ± 0.8 nM; with DDX21Fl (setting [1]), 10.2 ± 0.4 nM.

For orientation: Kd means the equilibrium constant for the complex coming apart.
